Experimental data as given in patent US20190091296.

Experiments:
[1] = biological target: Comparator: GLP1 analogue having the amino acid sequence characteristics of LY2189265 fused to hIgG4 Fc domain
[2] = biological target: Q-GLP1-hFc

Comparator: GLP1 analogue having the amino acid sequence characteristics of LY2189265 fused to hIgG4 Fc domain, sequence (chain, as listed by the source): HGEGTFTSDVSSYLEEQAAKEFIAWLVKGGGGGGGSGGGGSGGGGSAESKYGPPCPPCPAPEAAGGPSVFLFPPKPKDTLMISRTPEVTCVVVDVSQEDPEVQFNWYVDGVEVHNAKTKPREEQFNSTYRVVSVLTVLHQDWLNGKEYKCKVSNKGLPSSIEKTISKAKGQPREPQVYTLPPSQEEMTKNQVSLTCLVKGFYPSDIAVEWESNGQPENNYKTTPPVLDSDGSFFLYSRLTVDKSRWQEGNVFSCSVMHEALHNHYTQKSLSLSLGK

B1: recombinant human DPP4 (protein)
chain: SRKTYTLTDYLKNTYRLKLYSLRWISDHEYLYKQENNILVFNAEYGNSSVFLENSTFDEFGHSINDYSISPDGQFILLEYNYVKQWRHSYTASYDIYDLNKRQLITEERIPNNTQWVTWSPVGHKLAYVWNNDIYVKIEPNLPSYRITWTGKEDIIYNGITDWVYEEEVFSAYSALWWSPNGTFLAYAQFNDTEVPLIEYSFYSDESLQYPKTVRVPYPKAGAVNPTVKFFVVNTDSLSSVTNATSIQITAPASMLIGDHYLCDVTWATQERISLQWLRRIQNYSVMDICDYDESSGRWNCLVARQHIEMSTTGWVGRFRPSEPHFTLDGNSFYKIISNEEGYRHICYFQIDKKDCTFITKGTWEVIGIEALTSDYLYYISNEYKGMPGGRNLYKIQLSDYTKVTCLSCELNPERCQYYSVSFSKEAKYYQLRCSGPGLPLYTLHSSVNDKGLRVLEDNSALDKMLQNVQMPSKKLDFIILNETKFWYQMILPPHFDKSKKYPLLLDVYAGPCSQKADTVFRLNWATYLASTENIIVASFDGRGSGYQGDKIMHAINRRLGTFEVEDQIEAARQFSKMGFVDNKRIAIWGWSYGGYVTSMVLGSGSGVFKCGIAVAPVSRWEYYDSVYTERYMGLPTPEDNLDHYRNSTVMSRAENFKQVEYLLIHGTADDNVHFQQSAQISKALVDVGVDFQAMWYTDEDHGIASSTAHQHIYTHMSHFIKQCFSLP
Cleavage % after 4 hours [1]: 4%
Cleavage % after 72 hours [1]: 41%
Cleavage % after 4 hours [2]: 0%
Cleavage % after 72 hours [2]: 0%
